Results as given in patent US20260167699A1 (Chugai, published 2026).
Substitutions are numbered along the chain they refer to. Names may count otherwise.

T1: FcγRIIa(H) (human, UniProt P12318 34-217)
T1 construct: extracellular domain; also called 2aH
T1 sequence: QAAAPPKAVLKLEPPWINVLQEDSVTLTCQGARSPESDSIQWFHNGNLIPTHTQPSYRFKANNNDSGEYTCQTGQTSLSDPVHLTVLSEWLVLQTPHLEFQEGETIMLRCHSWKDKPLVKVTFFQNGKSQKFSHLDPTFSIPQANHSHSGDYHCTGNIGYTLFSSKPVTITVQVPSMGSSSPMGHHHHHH

T2: FcγRIIb (human, UniProt P31994 43-217)
T2 construct: extracellular domain; also called 2b
T2 sequence: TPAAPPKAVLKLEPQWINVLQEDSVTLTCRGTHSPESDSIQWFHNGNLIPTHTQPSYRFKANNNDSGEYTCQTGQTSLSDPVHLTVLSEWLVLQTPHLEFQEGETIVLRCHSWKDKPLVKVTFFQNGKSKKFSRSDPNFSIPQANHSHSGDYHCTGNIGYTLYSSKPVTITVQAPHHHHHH

T3: FcγRIIa(R) (human, UniProt P12318 34-217)
T3 construct: extracellular domain; also called 2aR
T3 sequence: T1 sequence with H134R

B1: H240-Kn061/H240-Hl134/L73-k0 (antibody, human IgG1, kappa)
heavy 1: QDQLVQSGAEVKKPGASVKVSCKASGFNIKDTYIQWVRQAPGQGLEWMGRIDPLRKQTKYREKFEGRVTITADTSTNTAYMELSSLRSEDTAVYYCVRSGREFDYWGQGTLVTVSSASTKGPSVFPLAPSSKSTSGGTAALGCLVKDYFPEPVTVSWNSGALTSGVHTFPAVLQSSGLYSLSSVVTVPSSSLGTQTYICNVNHKPSNTKVDKKVEPKSCDKTHTCPPCPAPEYYWGPSVFLFPPKPKDTLMISRTPEVTCVVVDVSDEDPEVKFNWYVDGVEVHNAKTKPREEQYNATYRVVSVLTVLHQDWLNGKEYKCKVSNKALPAPIEKTISKAKGQPREPQVCTLPPSRDELTKNQVSLWCLVKGFYPSDIAVEWESNGQPENNYKTTPPVLDSDGSFFLYSKLTVDKSRWQQGNVFSCSVMHEALHNHYTQKSLSLSP
heavy 2: B1 heavy 1 with C348Y, D355C, W365S, L367A, Y406V
light: DIQMTQSPSSLSASVGDRVTITCRASQDIHKYIAWYQQKPGQAPRLLIQYTSTLQPGVPSRFSGSGSGTDYTFTISSLQPEDIATYYCLQYEQLRTFGGGTKVEIKRTVAAPSVFIFPPSDEQLKSGTASVVCLLNNFYPREAKVQWKVDNALQSGNSQESVTEQDSKDSTYSLSSTLTLSKADYEKHKVYACEVTHQGLSSPVTKSFNRGEC
notes: anti-epiregulin IgG1 called homodimerized: L234Y/L235Y/G236W/H268D/S298A in both H chains; also called H240-Kn061/H240-HI134/L73-k0
B2: H240-Kn132/H240-Hl071/L73-k0 (antibody, human IgG1, kappa)
heavy 1: B1 heavy 1 with Y233L, Y234L, W235G, D267H, A297S, K325D, A329M, K333E
heavy 2: QDQLVQSGAEVKKPGASVKVSCKASGFNIKDTYIQWVRQAPGQGLEWMGRIDPLRKQTKYREKFEGRVTITADTSTNTAYMELSSLRSEDTAVYYCVRSGREFDYWGQGTLVTVSSASTKGPSVFPLAPSSKSTSGGTAALGCLVKDYFPEPVTVSWNSGALTSGVHTFPAVLQSSGLYSLSSVVTVPSSSLGTQTYICNVNHKPSNTKVDKKVEPKSCDKTHTCPPCPAPELLGGPSVFLFPPKPKDTLMISRTPEVTCVVVDVSHEDPEVKFNWYVDGVEVHNAKTKPREEQYNSTYRVVSVLTVLHQDWLNGKEYKCKVSNDALPMPIEETISKAKGQPREPQVYTLPPSRCELTKNQVSLSCAVKGFYPSDIAVEWESNGQPENNYKTTPPVLDSDGSFFLVSKLTVDKSRWQQGNVFSCSVMHEALHNHYTQKSLSLSP
light: B1 light
notes: anti-epiregulin IgG1 called homodimerized: K326D/A330M/K334E in both H chains; also called H240-Kn132/H240-HI071/L73-k0
B3: GpH7-A5/GpH7-B78/GpL16-k0 (antibody, human IgG1, kappa)
heavy 1: not shown
heavy 2: QVQLVQSGAEVKKPGASVTVSCKASGYTFTDYEMHWIRQPPGEGLEWIGAIDPKTGDTAYSESFQDRVTLTADKSTSTAYMELSSLTSEDTAVYYCTRFYSYTYWGQGTLVTVSSASTKGPSVFPLAPSSKSTSGGTAALGCLVKDYFPEPVTVSWNSGALTSGVHTFPAVLQSSGLYSLSSVVTVPSSSLGTQTYICNVNHKPSNTKVDKKVEPKSCDKTHTCPPCPAPELLGGPDVFLFPPKPKDTLMISRTPEVTCVVVDVSHEDPEVKFNWYVDGVEVHNAKTKPREEQYNSTYRVVSVLTVLHQDWLNGKEYKCKVSNKALPLPEEKTISKAKGQPREPQVYTLPPSRDELTKNQVSLTCLVKGFYPSDIAVEWESNGQPENNYKTTPPVLDSDGSFFLYSKLTVDKSRWQQGNVFSCSVMHEALHNHYTQESLSLSP
light: DIVMTQSPLSLPVTPGEPASISCQASESLVHSNRNTYLHWYLQKPGQSPQLLIYKVSNRFSGVPDRFSGSGSGTDFTLKISRVEAEDVGVYYCSQNTHVPPTFGQGTKVEIERTVAAPSVFIFPPSDEQLKSGTASVVCLLNNFYPREAKVQWKVDNALQSGNSQESVTEQDSKDSTYSLSSTLTLSKADYEKHKVYACEVTHQGLSSPVTKSFNRGEC
notes: heterodimerized anti-glypican 3 IgG1; S239D/A330L/I332E in one H chain
B4: GpH7-A5/GpH7-B3/GpL16-k0 (antibody, human IgG1, kappa)
heavy 1: not shown
heavy 2: not shown
light: B3 light
notes: also called HeCon Ab
B5: GpH7-G1d/GpL16-k0 (antibody, human IgG1, kappa)
heavy: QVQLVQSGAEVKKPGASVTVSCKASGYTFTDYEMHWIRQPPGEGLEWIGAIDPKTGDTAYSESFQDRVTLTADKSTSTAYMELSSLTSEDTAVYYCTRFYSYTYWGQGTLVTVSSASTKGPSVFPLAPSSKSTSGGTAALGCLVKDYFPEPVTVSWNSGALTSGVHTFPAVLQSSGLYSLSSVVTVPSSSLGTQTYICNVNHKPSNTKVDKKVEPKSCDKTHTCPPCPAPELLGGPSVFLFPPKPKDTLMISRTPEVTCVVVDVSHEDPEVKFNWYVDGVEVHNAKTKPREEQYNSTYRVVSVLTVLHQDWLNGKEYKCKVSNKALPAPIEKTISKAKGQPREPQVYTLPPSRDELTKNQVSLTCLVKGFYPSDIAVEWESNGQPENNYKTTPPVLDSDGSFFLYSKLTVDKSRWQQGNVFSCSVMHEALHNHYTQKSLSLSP
light: B3 light
notes: anti-glypican 3 IgG1, C-terminal Gly and Lys of the H chain deleted; also called naturally occurring IgG1
B6: GpH7-A5/GpH7-B3 variant S337_16H/GpL16-k0 (antibody, human IgG1, kappa)
heavy 1: not shown
heavy 2: not shown
light: B3 light
notes: heterodimerized anti-glypican 3 IgG1, only the GpH7-B3 chain mutated; also called He Ab
B7: GpH7-A5/GpH7-B3 variant S337_14T/GpL16-k0 (antibody, human IgG1, kappa)
heavy 1: not shown
heavy 2: not shown
light: B3 light
notes: as for B6
B8: GpH7-TA7/GpH7-B78/GpL16-k0 (antibody, human IgG1, kappa)
heavy 1: B3 heavy 2 with L232Y, G234W, D237S, S296A, L328A, E330I, D354K, H433R, E437K
heavy 2: B3 heavy 2
light: B3 light
notes: heterodimerized anti-glypican 3 IgG1; L234Y/G236W/S298A in one H chain, S239D/A330L/I332E in the other
B9: GpH7-TA7/GpH7-TA45/GpL16-k0 (antibody, human IgG1, kappa)
heavy 1: B3 heavy 2 with L232Y, G234W, D237S, S296A, L328A, E330I, D354K, H433R, E437K
heavy 2: B3 heavy 2 with L232Y, G234W, D237S, S296A, L328A, E330I
light: B3 light
notes: anti-glypican 3 IgG1 called homodimerized: L234Y/G236W/S298A in both H chains
B10: GpH7-A5/GpH7-B3 variant S337_07I/GpL16-k0 (antibody, human IgG1, kappa)
heavy 1: not shown
heavy 2: not shown
light: B3 light
notes: as for B6
B11: GpH7-A5/GpH7-B3 variant S337_11K/GpL16-k0 (antibody, human IgG1, kappa)
heavy 1: not shown
heavy 2: not shown
light: B3 light
notes: as for B6
B12: GpH7-A5/GpH7-B3 variant S337_08L/GpL16-k0 (antibody, human IgG1, kappa)
heavy 1: not shown
heavy 2: not shown
light: B3 light
notes: as for B6
B13: GpH7-A57/GpH7-B78/GpL16-k0 (antibody, human IgG1, kappa)
heavy 1: B3 heavy 2 with D354K, H433R, E437K
heavy 2: B3 heavy 2
light: B3 light
notes: anti-glypican 3 IgG1 called homodimerized: S239D/A330L/I332E in both H chains
B14: GpH7-A5/GpH7-B3 variant S337_15Y/GpL16-k0 (antibody, human IgG1, kappa)
heavy 1: not shown
heavy 2: not shown
light: B3 light
notes: as for B6
B15: GpH7-A5/GpH7-B3 variant S337_19Q/GpL16-k0 (antibody, human IgG1, kappa)
heavy 1: not shown
heavy 2: not shown
light: B3 light
notes: as for B6
B16: GpH7-TA7/GpH7-B3/GpL16-k0 (antibody, human IgG1, kappa)
heavy 1: B3 heavy 2 with L232Y, G234W, D237S, S296A, L328A, E330I, D354K, H433R, E437K
heavy 2: not shown
light: B3 light
notes: heterodimerized anti-glypican 3 IgG1; L234Y/G236W/S298A in one H chain
B17: GpH7-A5/GpH7-B3 variant S337_20W/GpL16-k0 (antibody, human IgG1, kappa)
heavy 1: not shown
heavy 2: not shown
light: B3 light
notes: as for B6

Key:
[1] = target: T4, FcγRIIIa(V) extracellular domain with C-terminal His tag (human, UniProt P08637 17-208); assay: SPR (Biacore), captured antibody, FcγR analyte, 1:1 Langmuir fit;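 note: surface plasmon resonance at 25 °C in HBS-EP+ running buffer, antibody captured on sensor chip, FcγR flowed over as analyte in the same buffer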
T4 construct: extracellular domain; polymorphic form V158; also called FcγRIIIa V type
Procedure: (§1) The antibody of interest was analyzed for its interaction with FcγR using a BiaCore™ T100, BiaCore™ A100, or BiaCore™ 4000 surface plasmon resonance system (GE Healthcare Japan Corp.). The running buffer used was HBS-EP+ (GE Healthcare Japan Corp.). The assay temperature was set to 25° C. The sensor chips used were: a chip prepared by immobilizing antigenic peptides onto Series S Sensor Chip CM5 (GE Healthcare Japan Corp.) by the amine coupling method; a chip prepared by immobilizing antigenic peptides biotinylated in advance onto Series S Sensor Chip SA (certified) (GE Healthcare Japan Corp.) through their interaction; a chip prepared by immobilizing protein L (ACTIGEN, BioVision, Inc.) onto Series S Sensor Chip CM5 (GE Healthcare Japan Corp.); and a chip prepared by immobilizing protein A/G (Thermo Fisher Scientific K.K.) onto Series S Sensor Chip CM5 (GE Healthcare Japan Corp.). The antibody of interest was captured onto any of these chips and allowed to interact with FcγR diluted with a running buffer. The antibody captured on the chip was washed off through the reaction of 10 mM glycine-HCl (pH 1.5) to regenerate the chip, which was repetitively used.

[2] = target: T5, FcγRIIIa(F) extracellular domain with C-terminal His tag (human, UniProt P08637 17-208); assay: as above
T5 construct: extracellular domain; polymorphic form F158; also called FcγRIIIa F type
Procedure: as §1

[3] = target: T6, FcγRIIIa extracellular domain with C-terminal His tag (allotype not given) (human, UniProt P08637 17-208); assay: SPR; KD of GpH7-A5/GpH7-B3/GpL16-k0 for FcγRIIIa divided by KD of this antibody
T6 construct: extracellular domain; also called 3a

[4] = target: T6, FcγRIIIa extracellular domain with …; assay: SPR (Biacore), captured antibody, FcγRIIIa analyte, 1:1 Langmuir fit
Procedure: as §1

[5] = target: T6, FcγRIIIa extracellular domain with …; assay: SPR; KD of GpH7-G1d/GpL16-k0 for FcγRIIIa divided by KD of this antibody
Procedure: as §1

FcγRIIa(H) = target: T1, FcγRIIa(H); assay: SPR (Biacore); He Ab binding / HeCon Ab (GpH7-A5/GpH7-B3/GpL16-k0) binding x100;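 note: antibody captured on the sensor chip, soluble FcγR flowed over it in HBS-EP+ running buffer, 25 °C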
Procedure: as §1

FcγRIa = target: T7, FcγRIa (human, UniProt P12314 16-292); assay: as above
T7 construct: extracellular domain; also called 1a
Procedure: as §1

FcγRIIb = target: T2, FcγRIIb; assay: as above
Procedure: as §1

FcγRIIa(R) = target: T3, FcγRIIa(R); assay: as above
Procedure: as §1

T7 sequence (P12314 other isoform, or with tags, fused parts or gaps): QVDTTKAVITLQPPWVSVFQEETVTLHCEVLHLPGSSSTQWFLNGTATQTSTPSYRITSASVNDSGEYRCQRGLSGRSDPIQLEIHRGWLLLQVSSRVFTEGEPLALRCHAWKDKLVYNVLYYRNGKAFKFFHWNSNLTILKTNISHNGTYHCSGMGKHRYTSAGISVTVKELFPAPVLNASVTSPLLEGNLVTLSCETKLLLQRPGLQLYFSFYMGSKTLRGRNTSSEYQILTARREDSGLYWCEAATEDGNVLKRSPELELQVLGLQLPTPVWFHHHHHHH
T6 sequence (P08637 other isoform, or with tags, fused parts or gaps): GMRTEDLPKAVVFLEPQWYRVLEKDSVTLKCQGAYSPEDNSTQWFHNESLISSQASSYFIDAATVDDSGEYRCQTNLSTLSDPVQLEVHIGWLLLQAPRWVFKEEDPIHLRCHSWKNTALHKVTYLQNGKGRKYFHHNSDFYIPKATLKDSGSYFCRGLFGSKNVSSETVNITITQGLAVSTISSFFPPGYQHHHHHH
T4 sequence (P08637 other isoform, or with tags, fused parts or gaps): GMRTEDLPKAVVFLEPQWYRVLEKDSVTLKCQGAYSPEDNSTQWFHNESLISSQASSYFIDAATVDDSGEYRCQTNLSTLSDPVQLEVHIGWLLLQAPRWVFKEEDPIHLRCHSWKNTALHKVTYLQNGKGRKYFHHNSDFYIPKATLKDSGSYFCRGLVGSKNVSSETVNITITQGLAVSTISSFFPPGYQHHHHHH

Binder	Kd [1]	Kd [2]	KD ratio2 [3]	Kd [4]	KD ratio1 [5]	He/Con 2aH (FcγRIIa(H))	He/Con 1a (FcγRIa)	He/Con 2b (FcγRIIb)	He/Con 2aR (FcγRIIa(R))
B1	86 nM	660 nM							
B2	16 nM	77 nM							
B3			30 fold	54 nM	23 fold				
B4			1 fold	1600 nM	0.75 fold				
B5				1200 nM	1 fold				
B6						108%	101%	114%	111%
B7						110%	102%	114%	112%
B8			347 fold	4.7 nM	261 fold				
B9			0.49 fold	3300 nM	0.37 fold				
B10						107%	102%	113%	111%
B11						102%	101%	103%	105%
B12						106%	102%	109%	109%
B13			263 fold	6.2 nM	199 fold				
B14						106%	101%	109%	107%
B15						104%	101%	109%	108%
B16			5.1 fold	320 nM	3.8 fold				
B17						108%	102%	119%	112%
